Residue numbers refer to the chain shown, from its start. In names and notes the source's numbering stands.
B1: K31F/N33D/H34A/E35Q/N49D/N51S/N53S/E57G/N64D ACE2(614), Aga2p-GFP construct Y354, displayed on yeast (designed binder)
chain: QSTIEEQAKTFLDFFDAQAEDLFYQSSLASWDYSTSITEGNVQNMNDAGDKWSAFLKEQSTLAQMYPLQEIQNLTVKLQLQALQQNGSSVLSEDKSKRLNTILNTMSTIYSTGKVCNPDNPQECLLLEPGLNEIMANSLDYNERLWAWESWRSEVGKQLRPLYEEYVVLKNEMARANHYEDYGDYWRGDYEVNGVDGYDYSRGQLIEDVEHTFEEIKPLYEHLHAYVRAKLMNAYPSYISPIGCLPAHLLGDMWGRFWTNLYSLTVPFGQKPNIDVTDAMVDQAWDAQRIFKEAEKFFVSVGLPNMTQGFWENSMLTDPGNVQKAVCHPTAWDLGKGDFRILMCTKVTMDDFLTAHHEMGHIQYDMAYAAQPFLLRNGANEGFHEAVGEIMSLSAATPKHLKSIGLLSPDFQEDNETEINFLLKQALTIVGTLPFTYMLEKWRWMVFKGEIPKDQWMKKWWEMKREIVGVVEPVPHDETYCDPASLFHVSNDYSFIRYYTRTLYQFQFQEALCQAAKHEGPLHKCDISNSTEAGQKLFNMLRLGKSEPWTLALENVVGAKNMNVRPLLNYFEPLFTWLKDQNKNSFVGWSTDWSPYA
B2: S19P/N33S/H34V/F40L/N49D/L100P ACE2(614), Aga2p-GFP construct Y375, displayed on yeast (designed binder)
chain: QPTIEEQAKTFLDKFSVEAEDLLYQSSLASWDYNTNITEENVQNMNNAGDKWSAFLKEQSTLAQMYPLQEIQNLTVKLQLQAPQQNGSSVLSEDKSKRLNTILNTMSTIYSTGKVCNPDNPQECLLLEPGLNEIMANSLDYNERLWAWESWRSEVGKQLRPLYEEYVVLKNEMARANHYEDYGDYWRGDYEVNGVDGYDYSRGQLIEDVEHTFEEIKPLYEHLHAYVRAKLMNAYPSYISPIGCLPAHLLGDMWGRFWTNLYSLTVPFGQKPNIDVTDAMVDQAWDAQRIFKEAEKFFVSVGLPNMTQGFWENSMLTDPGNVQKAVCHPTAWDLGKGDFRILMCTKVTMDDFLTAHHEMGHIQYDMAYAAQPFLLRNGANEGFHEAVGEIMSLSAATPKHLKSIGLLSPDFQEDNETEINFLLKQALTIVGTLPFTYMLEKWRWMVFKGEIPKDQWMKKWWEMKREIVGVVEPVPHDETYCDPASLFHVSNDYSFIRYYTRTLYQFQFQEALCQAAKHEGPLHKCDISNSTEAGQKLFNMLRLGKSEPWTLALENVVGAKNMNVRPLLNYFEPLFTWLKDQNKNSFVGWSTDWSPYA
B3: K31F/H34I/E35Q ACE2(614), Aga2p-GFP construct Y293, displayed on yeast (designed binder)
chain: B1 chain with D16N, A17I, D32N, S34N, S36N, G40E, D47N
B4: K31Y/W69V/L79T/L91P ACE2(614), Aga2p-GFP construct Y311, displayed on yeast (designed binder)
chain: B2 chain with P2S, K14Y, S16N, V17H, L23F, D32N, W52V, L62T, L74P, P83L
B5: S19P/Q42L/L79T/N90Q ACE2(614), Aga2p-GFP construct Y355, displayed on yeast (designed binder)
chain: B2 chain with S16N, V17H, L23F, Q25L, D32N, L62T, N73Q, P83L

target: SARS-CoV-2 spike RBD monomer (328-533), 8XHis tag, AviTag, biotinylated (SARS-CoV-2); assay: flow cytometry on cells; conditions: one partner purified

Row | Binder | Kd
1 | B1 | 0.45 nM
2 | B2 | 0.61 nM
3 | B3 | 1.71 nM
4 | B4 | 0.64 nM
5 | B5 | 0.94 nM

Source: article PMC7668070 (Proceedings of the National Academy of Sciences of the …, 2020)
